{"source": "patent US12043671B2", "about": "“Antibodies targeting an amphiregulin-derived cell surface neo-epitope” (Gundersen Lutheran Medical Foundation, Inc., priority 2021, dated 2024)", "key": {"[1]": {"target": "T1, peptide representing the neo-epitope of the ADAM17-cleavage product of human AREG (Homo sapiens, UniProt P15514)", "T1 construct": "host or cells: synthetic peptide", "test": "ELISA of rabbit IgG candidates against peptides representing cleaved and full length AREG", "type": "binding", "text": "FIGS. 1A-1C. Isolation of antibodies that selectively recognize a peptide representing cleaved AREG. FIG. 1A: Schematic representation of the AREG cleavage and EGFR activation process, one consequence of which is the internalization of the small transmembrane fragment that remains cell-associated after TACE/ADAM17-mediated cleavage. FIG. 1B: Schematic representation of phage panning strategy using a peptide representing the cleaved AREG neo-epitope adhered to the well and a peptide representing the non-cleaved AREG region in the liquid phase.\nRabbit monoclonal IgG antibodies specific to cleaved-AREG were identified in contracted screening (Oak Biosciences Inc., Sunnyvale, CA, USA) using a recombinant Rabbit naïve phage display library (scFv format, VK-linker-VH) screening platform after four rounds of panning and ELISA validation. For panning, phage was selected against a peptide modeling the ADAM17-cleaved cell-associated epitope of AREG,^12 represented by the N-terminal region of THSMIDSSLSKI (SEQ ID NO: 2), and counter-selected against a peptide spanning this region (SMKTHSMIDSSLSKIAC; SEQ ID NO: 9), representing uncleaved AREG. […] GMF-1A3, referred to hereafter as simply “1A3”, was the antibody chosen for further characterization in this Example."}, "MCF-7 cells": {"system": "MCF-7 cells", "test": "Tubulin staining (microtubule integrity)", "type": "cell-based, human", "details": "48 h treatment", "description": "FIGS. 4A-4E. In vitro 1A3-MMAE cytotoxicity in MCF-7 (FIG. 4A) and MCF-7F (FIG. 4B) cells measured by MTT assay after treatment with 1A3-MMAE, 1A3 or MMAE. FIG. 4C: Clonogenic growth of MCF-7 or MCF-7F cells after exposure to 1A3-MMAE and replating. FIG. 4D: The quantification of clonogenic growth assays in FIG. 4C. (FIG. 4E). Tubulin staining of MCF-7 cells after 48 h treatment with MMAE, 1A3, 1A3-MMAE (40× magnification)."}, "[2]": {"target": "T2, FL AREG (peptide representing uncleaved AREG) (Homo sapiens, UniProt P15514)", "T2 construct": "a peptide spanning this region (SMKTHSMIDSSLSKIAC); host or cells: synthetic peptide conjugated to transferrin", "test": "Immunoblot of TRF-conjugated AREG peptides, intact cleavage site", "type": "binding", "details": "1 μg/mL antibody, 200 ng TRF-conjugated peptide", "description": "Monomethyl auristatin E (MMAE) conjugated 1A3 antibody (1A3-VC-PAB-MMAE) was prepared using a kit (CM11409) from CellMosaic Inc. (Woburn, MA, USA) following the manufacturer's instructions. Maleimide-activated valine-citrulline p-aminobenzylcarbamate (VCPAB) MMAE was coupled directly to the antibody after reduction through alkylation.^13 The specificity of 1A3 and 1A3-VC-PAB-MMAE to peptides representing human cleaved-AREG was confirmed by immunoblotting. Briefly, transferrin (TRF) conjugated peptides representing cleaved and uncleaved AREG (200 ng) were electrophoresed on SDS-PAGE gels, transferred to PVDF membrane and probed with 1 μg/mL of 1A3 and 1A3-VC-PAB-MMAE. Horseradish peroxidase-conjugated goat anti-rabbit IgG was used. Antibody binding was detected with enhanced chemiluminescence (ECL; Amersham, Arlington Heights, IL, USA). Furthermore, the characterization and purity of 1A3-VC-PAB-MMAE were analyzed using hydrophobic interaction chromatography (HIC) and size-exclusion chromatography (Cell Mosaic)."}}, "data": [{"molecule": "1A3: Rabbit monoclonal IgG specific to cleaved AREG; VH SEQ ID NO: 3, VL SEQ ID NO: 4 (antibody, V domains shown, 1A3 antibody, Heavy chain; 1A3 antibody, Light chain) VH: QSVKESEGRLVTPGTPLRLTCTVAGYSLSRYHMCWVRQAPGKGLEWIGMIGGSGRTDYASWAKGRFTISKTSTTVDLKITSPTTEDTATYFCSTVYTDSDGDFWGPGTLVTVSS VL: AELDMTQTPSSKSVPVGGTVTINCQASESVYSNDRLAWFQQKPGQPPKLLIYYASTLASGVPSRFKGSGSGTQFTLTISDLECADAATYYCQSCYDMSSYGVAFGGGTELEIL", "values": [{"measurement": "selectivity for cleaved AREG by ELISA", "setting": "[1]; IgG format, cleaved vs uncleaved AREG peptide", "value": "selectivity for cleaved AREG was confirmed"}, {"measurement": "binding ratio of cleaved AREG to intact AREG as determined by ELISA", "setting": "[1]; compared among the three antibodies", "value": "highest binding ratio"}, {"measurement": "tubulin disruption (microtubule integrity)", "setting": "MCF-7 cells", "value": "did not"}, {"measurement": "reaction with peptide representing uncleaved AREG by immunoblot", "setting": "[2]", "value": "did not react"}]}]}
